Here are results for five molecules from publication PMC6212398 (Nature Communications, 2018).

Experiment in all cases: ITC; peptide (1 mM) titrated into a cell with Hsp27 proteins (100 µM); SEC buffer (50 mM sodium phosphate, 100 mM NaCl); 25 °C; one-site binding model
Holding throughout (settings): both partners purified

Assay [1] concerns the target T1, Hsp27 alpha-crystallin domain (ACD, residues Q80–S176) (human, UniProt P04792 80-176).
T1 construct: Human Hsp27 (HSPB1), alpha-crystallin domain, residues Q80–S176; Used 15N-labelled (observed in HSQC) and unlabelled; Vector was a gift of the Klevit laboratory; also called Hsp27 ACD

Assay [2] addresses T2, Hsp27 3D (pseudo-phosphorylation mutant S15D, S78D, S82D) (human, UniProt P04792 1-205, S15 replaced with aspartate | S78 replaced with aspartate | S82 replaced with …).
T2 construct: Human Hsp27 (HSPB1) in which three serines (S15, S78 and S82) are replaced with aspartate; Vector was a gift of the Dickey laboratory; Compared throughout with the full-length wild type, so probably the whole protein

Assay [3] concerns the target T3, Hsp27 ΔNTD (residues 80–205) (human, UniProt P04792 80-205).
T3 construct: Human Hsp27 (HSPB1) without the N-terminal domain, residues 80–205; Heterogeneous mixture of 3–5 mers; source: E. coli BL21 (DE3), purified (Ni-NTA, size exclusion)

T1 sequence (P04792 80-176): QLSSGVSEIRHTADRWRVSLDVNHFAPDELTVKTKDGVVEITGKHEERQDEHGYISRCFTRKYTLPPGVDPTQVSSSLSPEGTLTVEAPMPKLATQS
T2 sequence (P04792 whole entry S15D/S78D/S82D): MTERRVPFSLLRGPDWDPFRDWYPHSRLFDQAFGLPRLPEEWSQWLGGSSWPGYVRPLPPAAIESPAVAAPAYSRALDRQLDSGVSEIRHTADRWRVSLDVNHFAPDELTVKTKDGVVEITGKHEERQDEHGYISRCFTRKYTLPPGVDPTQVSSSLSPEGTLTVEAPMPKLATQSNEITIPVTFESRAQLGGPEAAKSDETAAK
T3 sequence (P04792 80-205, stated change not applied): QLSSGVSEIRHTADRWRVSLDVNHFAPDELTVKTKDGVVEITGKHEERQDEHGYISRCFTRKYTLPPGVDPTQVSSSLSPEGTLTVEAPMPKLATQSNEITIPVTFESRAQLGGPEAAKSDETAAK

B1: Hsp27 IPV H peptide with Val181 mutated to alanine (peptide)
chain: EITIPATHE
modifications: EITIPATHE. The paper numbers the peptide from E176, so printed Val181 (V of IPV) is UniProt V183. Peptide termini chemistry is not stated.
In assay [1], B1 had a Kd of over 25 µM.

B2: Hsp27 IPV peptide (native 9-mer EITIPVTFE) (peptide)
peptide: EITIPVTFE
notes: Human Hsp27 (HSPB1), C-terminal IPV (IXI) motif, 9-mer; source: synthetic peptide, bought: Genescript
In turn, B2 showed a Kd in assay [1] of over 25 µM.

B3: Hsp27 IPV H peptide (EITIPVTHE) (peptide)
peptide: EITIPVTHE
notes: Human Hsp27 (HSPB1) IPV 9-mer with the penultimate phenylalanine swapped for histidine (the residue at this position in the motif of BAG3); also called His-containing IPV peptide; chimeric peptide; source: synthetic peptide, bought: Genescript
For the molecule B3, the Kd is 11.5 µM in assay [1], over 50 µM in assay [2] and 11.4 µM in assay [3].

B4: Hsp27 IPV H peptide with the second X residue (Pro) of IXIXV mutated to alanine (EITIAVTHE) (peptide)
peptide: EITIAVTHE
notes: Human Hsp27 (HSPB1) IPV peptide in the His-containing context with the proline of IPV mutated to alanine; source: synthetic peptide, bought: Genescript
In turn, B4 came in with a Kd in assay [1] of about 5 µM.

B5: Hsp27 IPV H peptide with Ile179 mutated to alanine (peptide)
chain: EITAPVTHE
modifications: EITAPVTHE. The paper numbers the peptide from E176, so printed Ile179 (I of IPV) is UniProt I181. Peptide termini chemistry is not stated.
Molecule B5 yielded a dissociation constant (Kd) in assay [1] of over 25 µM.

As usually defined, the Kd is the constant that tells how readily two partners part at equilibrium. The low end stands for higher affinity, the high end for lower affinity.
